Laboratory results from US20230322857A1, “RECOMBINANTLY ENGINEERED POLYPEPTIDES CAPABLE OF RECYCLING NONCANONICAL COFACTORS” (The Regents of the University of California, priority 2022, published 2023).
“Also recorded” adds a separate entry of the source.

What was measured:
Assay type in all cases: biochemical
[1] = Steady-state kinetics of TS-PTDH variants with NMN^+
Procedure: (§1) Purification and Characterization of TS-PTDH Variants. The E. coli BL21(DE3) strains harboring pQElac plasmids encoding the TS-PTDH or TS-PTDH variants were grown in 2×YT media with kanamycin and ampicillin at 37° C. The IPTG-inducible expression, Ni-affinity purification, and protein concentration determination was conducted as described above.
(§2) The steady-state kinetic parameters toward the coenzymes were measured by spiking purified protein into a 100 μL reaction mixture containing 100 mM MOPS, pH 7.25, 10 mM sodium Pt, and varied cofactor concentrations from 0.02 mM to 5 mM at 25° C. The kinetic parameters were measured by monitoring the […] of reduced coenzyme at 340 nm. Data were fitted to the Michaelis-Menten equation to generate estimates of KM and kcat values.

[2] = Comparison of PTDH and GDH Triple redox cofactor cycling systems
Procedure: Comparison of PTDH and GDH Triple Redox Cofactor Cycling Systems. In cycling reactions focused on higher conversion and productivity, see FIG. 10C, the concentration of cofactor cycling protein (TS-PTDH or GDH Triple) was increased relative to the TTN determination experiments. Reactions were performed at 30° C. without shaking in 1 mL volumes in 2 mL glass vials secured with a PTFE-lined screw cap. Sampling and GC-FID analysis were performed as described in the TTN method section.
Reactions utilizing TS-PTDH LY-13 contained 100 mM MOPS at pH 7.5, 100 mM sodium phosphite, 33 mM KIP, and 18.8 μM XenA. Reactions utilizing GDH Triple contained 200 mM potassium phosphate at pH 7.5, 300 mM D-glucose, 1 M NaCl, 33 mM KIP, and 18.8 μM XenA. The NMN^+ concentration in each reaction was varied at 0, 0.05, 0.1, 0.5, or 5 mM. The reactions were initiated by spiking TS-PTDH LY-13 or GDH Triple to a final concentration of 10 μM.

[3] = Steady-state kinetics of TS-PTDH variants with NAD^+; conditions: 100 mM MOPS, pH 7.25, 10 mM sodium phosphite, varied cofactor concentrations; n = 3
Procedure: as §1, §2

[4] = TS-PTDH total turnover number determination (NMN(H) cycling with XenA, KIP to levodione); conditions: averaged over the 16-day reaction
Procedure: TS-PTDH Total Turnover Number Determination. Reactions to determine the TTN of TS-PTDH LY-13 (see FIG. 10B) were performed at 1 mL volumes in 2 mL glass vials secured with a PTFE-lined screw cap. Reactions were incubated without shaking at 30° C. Reaction buffer was comprised of 200 mM MOPS at pH 7.5, 100 mM sodium phosphite, 6 mM NMN^+, and 33 mM ketoisophorone (KIP). To initiate the reaction, purified TS-PTDH LY-13 and XenA were spiked into the reaction mixture to a final concentration of 0.25 μM and 18.8 μM, respectively. The reactions were sampled intermittently by removing 50 μL of reaction mixture and mixing with 100 μL of ethyl acetate containing 200 mg/L1-octanol. Samples were vortexed, centrifuged, and the ethyl acetate fraction was transferred to a GC vial for GC-FID analysis. GC-FID analysis for KIP biotransformation efficiency was performed on an Agilent 6850 GD using an Agilent DB-WAX column (30 m×0.56 mm×1 μm). Helium was used as a carrier gas. The inlet and detector were held at 250 and 260° C., respectively. 5 μL of sample was injected with a 2:1 split ratio. […] TTN was calculated by the moles of levodione produced divided by the moles of LY-13 supplied to the reaction system. Total turnover frequency was determined by dividing TTN by the total reaction time of 384 h. Levodione concentration was determined by correlating sample response to a standard curve of known values.

[5] = 100 mM MOPS, pH 7.25, 10 mM sodium phosphite, varied cofactor concentrations, n = 3

B1: LY-13: phosphite dehydrogenase variant with A155N, E175A, A176F (SEQ ID NO: 6) (protein)
chain: MLPKLVITHRVHEEILQLLAPHCELITNQTDSTLTREEILRRCRDAQAMMAFMPDRVDADFLQACPELRVIGCALKGFDNFDVDACTARGVWLTFVPDLLTVPTAELAIGLAVGLGRHLRAADAFVRSGKFRGWQPRFYGTGLDNATVGFLGMGNIGLAMADRLQGWGATLQYHAFKALDTQTEQRLGLRQVACSELFASSDFILLALPLNADTLHLVNAELLALVRPGALLVNPCRGSVVDEAAVLAALERGQLGGYAADVFEMEDWARADRPQQIDPALLAHPNTLFTPHIGSAVRAVRLEIERCAAQNILQALAGERPINAVNRLPKANPAAD
Km [1, 5]: 620 µM
NMN^+ kcat [1, 5]: 0.27 ± 0.01 s⁻¹
increase in catalytic efficiency for NMN^+ compared to TS-PTDH (wild type enzyme) ([1]; vs TS-PTDH): ~110 fold
increased catalytic efficiency (kcat/Km) for NMN^+ compared to TS-PTDH A155N ([1]; vs parent enzyme TS-PTDH A155N): ~44 fold
time to complete conversion of the 33 mM KIP pool ([2]; 5 mM NMN^+ supplied, 10 μM cycling enzyme, 18.8 μM XenA): 12 h
biotransformation performance compared to GDH Triple at low NMN^+ ([2]; NMN^+ supplementation 1 mM and lower): higher biotransformation rates and final titers; also recorded: more efficient utilization of the NMN^+ pool; also recorded: outperform GDH Triple
Km [3]: 180 ± 30 µM
NAD^+ kcat [3]: 2.06 ± 0.11 s⁻¹
Total Turnover Frequency [4]: ~117 turnovers per hour
